Data reported in US20240269194A1, “COMPOSITIONS AND METHODS FOR ISLET CELL TRANSPLANTS” (City of Hope, priority 2021, published 2024).

Target: T1, gastrin receptor CCKBR on human islets (human) (UniProt P32239)
T1 sequence (looked up): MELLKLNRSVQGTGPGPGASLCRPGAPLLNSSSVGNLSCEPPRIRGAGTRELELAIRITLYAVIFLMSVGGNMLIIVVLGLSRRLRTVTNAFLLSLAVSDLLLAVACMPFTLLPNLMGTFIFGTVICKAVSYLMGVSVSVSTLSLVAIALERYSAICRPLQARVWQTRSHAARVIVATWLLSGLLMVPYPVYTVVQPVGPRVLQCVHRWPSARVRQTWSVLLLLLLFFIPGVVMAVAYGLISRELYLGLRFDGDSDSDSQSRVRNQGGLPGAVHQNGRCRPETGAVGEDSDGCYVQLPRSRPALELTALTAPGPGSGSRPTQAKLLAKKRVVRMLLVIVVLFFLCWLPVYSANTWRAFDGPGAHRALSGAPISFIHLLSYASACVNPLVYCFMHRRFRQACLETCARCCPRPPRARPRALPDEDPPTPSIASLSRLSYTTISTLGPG
Experiment: cell-based or functional assay

Substance: gastrin analogue [Leu^15] Gastrin-17 (GAST-17) (peptide)
- glucagon mRNA (qPCR) in human islets from donors with high HbA1c, 100 nM gastrin: 1.8 fold
- insulin mRNA (qPCR) in human islets from donors with high HbA1c, 100 nM gastrin: > 2 fold
- somatostatin mRNA (qPCR) in human islets from donors with high HbA1c, 100 nM gastrin: 2.5 fold
